The supplement of paper PMC7877785
± gives the uncertainty stated by the source.

Assay: self-splicing fitness, log relative to wild type (ln ratio); higher = more splicing; Tetrahymena group I intron in knt gene, E. coli kanamycin selection, DiMSum; sequences stand for … in CUCUCU…GGAGGGAAAAGUUAUCAGGCAUGCACCUGGUAGCUAGUCUUUAAACCAAUAGAUUGCAUCGGUUUAAAAGGCAAGACCGUCAAAUUGCGGGAAAGGGGUCAACAGCCGUUCAGUACCAAGUCUCAGGGGAAACUUUGAGAUGGCCUUGCAAAGGGUAUGGUAAUAAGCUGACGGACAUGGUCCUAACCACGCAGCCAAGUCCUAAGUCAACAGAUCUUCUGUUGAUAUGGAUGCAGUUCACAGACUAAAUGUCGGUCGGGGAAGAUGUAUUCUUCUCAUAAGAUAUAGUCGGACCUCUCCUUAAUGGGAGCUAGCGGAUGAAGUGAUGCAACACUGGAGCCGCUGGGAACUAAUUUGUAUGCGAAAGUAUAUUGAUUAGUUUUGGAGUACUCGUGGUCG
Procedure, shortened: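 Fitness was computed with DiMSum as the error-weighted combination of replicate fold changes, kanamycin versus none, each normalised to wild type. The library randomised all eight intron nucleotides of the P1ex region, with the intron placed in the knt kanamycin-resistance gene on pET-22b(+) in E. coli BL21(DE3). Six replicate transformations were grown overnight at 37°C or 30°C on LB agar with or without 25 μg/mL kanamycin, plus 100 μg/mL carbenicillin, 50 μM IPTG and 0.2% rhamnose. Pooled colonies were amplicon-sequenced on an Illumina HiSeq 2500.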

Row | Sequence | self-splicing fitness (ln) (30 °C) | self-splicing fitness (ln) (37 °C)
1 | AAGAAGCAAUAUUACGAGCA | -1.21 ± 0.12 | -0.225 ± 0.1
2 | AAGAAGCAAUAUUACGAGCC | -2.58 ± 0.2 | -2.58 ± 0.29
3 | AAGAAGCAAUAUUACGAUAU | -1.66 ± 0.11 | -0.399 ± 0.12
4 | AAGAAGCAAUAUUACGCAGG | -2.54 ± 0.14 | -1.26 ± 0.14
5 | AAGAAGCAAUAUUACGCAUG | -1.63 ± 0.13 | -0.526 ± 0.13
6 | AAGAAGCAAUAUUACGCGCC | -0.652 ± 0.13 | -0.664 ± 0.2
7 | AAGAAGCAAUAUUACGCUGG | -2.37 ± 0.2 | -0.515 ± 0.2
8 | AAGAAGCAAUAUUACGGAAA | -2.17 ± 0.19 | -1.72 ± 0.2
9 | AAGAAGCAAUAUUACGGACA | -1.66 ± 0.092 | -0.389 ± 0.096
10 | AAGAAGCAAUAUUACGGCGU | 0.0118 ± 0.086 | 0.334 ± 0.11
11 | AAGAAGCAAUAUUACGGGAU | -3.22 ± 0.22 | -1.77 ± 0.18
12 | AAGAAGCAAUAUUACGGGCC | -2.42 ± 0.22 | -1.52 ± 0.21
13 | AAGAAGCAAUAUUACGGGUG | -1.65 ± 0.072 | -1.12 ± 0.086
14 | AAGAAGCAAUAUUACGGUCG | -0.736 ± 0.073 | -0.121 ± 0.1
15 | AAGAAGCAAUAUUACGUAAG | -1.37 ± 0.069 | -0.942 ± 0.083
16 | AAGAAGCAAUAUUACGUGCU | -2.37 ± 0.087 | -1.3 ± 0.082
17 | AAGAAGCAAUAUUACGUGUA | -1.85 ± 0.11 | -1.19 ± 0.092
18 | AAGAAGCAAUAUUACGUUGU | -3.2 ± 0.1 | -2.06 ± 0.11
19 | AAGCAGCAAUAUUACGAAGC | -3.33 ± 0.29 | -1.93 ± 0.27
20 | AAGCAGCAAUAUUACGAGCG | -1.12 ± 0.11 | -0.344 ± 0.14
21 | AAGCAGCAAUAUUACGAGCU | -1.2 ± 0.079 | -0.815 ± 0.083
22 | AAGCAGCAAUAUUACGAUGC | -1.38 ± 0.11 | -0.411 ± 0.13
23 | AAGCAGCAAUAUUACGAUUA | -1.4 ± 0.077 | -0.962 ± 0.066
24 | AAGCAGCAAUAUUACGCCAC | -2.93 ± 0.22 | -2.72 ± 0.29
25 | AAGCAGCAAUAUUACGCCCC | -0.65 ± 0.15 | -0.107 ± 0.19

Row | Sequence | self-splicing fitness (ln) (30 °C) | self-splicing fitness (ln) (37 °C)
26 | AAGCAGCAAUAUUACGCCGA | -1.64 ± 0.3 | -1.61 ± 0.26
27 | AAGCAGCAAUAUUACGCGAA | -1.77 ± 0.083 | -1.2 ± 0.1
28 | AAGCAGCAAUAUUACGCGAU | -3.31 ± 0.18 | -3.25 ± 0.18
29 | AAGCAGCAAUAUUACGCGGU | -3.08 ± 0.17 | -2.55 ± 0.23
30 | AAGCAGCAAUAUUACGCGUU | -2.2 ± 0.1 | -1.99 ± 0.11
31 | AAGCAGCAAUAUUACGCUCA | 0.661 ± 0.12 | -0.0809 ± 0.2
32 | AAGCAGCAAUAUUACGGAAG | -3.51 ± 0.15 | -1.35 ± 0.14
33 | AAGCAGCAAUAUUACGGAGG | -3.79 ± 0.19 | -2.53 ± 0.21
34 | AAGCAGCAAUAUUACGGAUG | -3.17 ± 0.2 | -2.57 ± 0.2
35 | AAGCAGCAAUAUUACGGCAC | -0.574 ± 0.072 | -0.149 ± 0.098
36 | AAGCAGCAAUAUUACGGCAU | -0.221 ± 0.083 | 0.127 ± 0.1
37 | AAGCAGCAAUAUUACGGCUU | -3.42 ± 0.14 | -0.925 ± 0.12
38 | AAGCAGCAAUAUUACGGGGG | -3.26 ± 0.22 | -1.92 ± 0.16
39 | AAGCAGCAAUAUUACGUAGG | -2.79 ± 0.096 | -1.96 ± 0.13
40 | AAGCAGCAAUAUUACGUAUG | -4.5 ± 0.26 | -2.63 ± 0.17
41 | AAGCAGCAAUAUUACGUGUU | -3.31 ± 0.1 | -1.65 ± 0.089
42 | AAGCAGCAAUAUUACGUUGU | -3.89 ± 0.12 | -2.31 ± 0.11
43 | AAGGAGCAAUAUUACGAACG | – | -0.373 ± 0.27
44 | AAGGAGCAAUAUUACGAUAU | -3.03 ± 0.32 | -2.37 ± 0.45
45 | AAGGAGCAAUAUUACGCAAG | -1.2 ± 0.38 | -1.45 ± 0.49
46 | AAGGAGCAAUAUUACGCAGA | – | -2.56 ± 0.45
47 | AAGGAGCAAUAUUACGCAUU | -2.8 ± 0.15 | -1.64 ± 0.16
48 | AAGGAGCAAUAUUACGCCAG | -2.29 ± 0.26 | -3.1 ± 0.35
49 | AAGGAGCAAUAUUACGGAGU | -3.24 ± 0.22 | -1.33 ± 0.17
50 | AAGGAGCAAUAUUACGGGAG | -4.8 ± 0.39 | -2.24 ± 0.3

Row | Sequence | self-splicing fitness (ln) (30 °C) | self-splicing fitness (ln) (37 °C)
51 | AAGGAGCAAUAUUACGGGCA | -1.9 ± 0.23 | -1.2 ± 0.28
52 | AAGGAGCAAUAUUACGGGCC | -2.98 ± 0.37 | -2.27 ± 0.45
53 | AAGGAGCAAUAUUACGGGUA | -2.64 ± 0.24 | -2.3 ± 0.46
54 | AAGGAGCAAUAUUACGGGUU | -2.46 ± 0.23 | -2.16 ± 0.28
55 | AAGGAGCAAUAUUACGGUCU | -2.3 ± 0.15 | -0.298 ± 0.12
56 | AAGGAGCAAUAUUACGGUGA | -2.44 ± 0.21 | -1.09 ± 0.2
57 | AAGGAGCAAUAUUACGGUUC | -1.51 ± 0.17 | -2.92 ± 0.35
58 | AAGGAGCAAUAUUACGUAGU | – | -2.03 ± 0.27
59 | AAGGAGCAAUAUUACGUCAG | -3.29 ± 0.41 | -2.28 ± 0.45
60 | AAGGAGCAAUAUUACGUCCU | -2.6 ± 0.25 | -2.27 ± 0.31
61 | AAGGAGCAAUAUUACGUGUC | – | -2.12 ± 0.32
62 | AAGGAGCAAUAUUACGUGUU | -3.55 ± 0.14 | -3.5 ± 0.24
63 | AAGGAGCAAUAUUACGUUGA | -3.47 ± 0.23 | -2.52 ± 0.19
64 | AAGUAGCAAUAUUACGAAAC | -3.53 ± 0.27 | -1.45 ± 0.29
65 | AAGUAGCAAUAUUACGACAC | -0.538 ± 0.19 | -0.726 ± 0.19
66 | AAGUAGCAAUAUUACGACGU | -0.114 ± 0.059 | 0.403 ± 0.078
67 | AAGUAGCAAUAUUACGAGGU | -1.94 ± 0.13 | -1.97 ± 0.17
68 | AAGUAGCAAUAUUACGAUCU | -0.032 ± 0.1 | 0.3 ± 0.13
69 | AAGUAGCAAUAUUACGCAUA | -1.31 ± 0.15 | -0.759 ± 0.15
70 | AAGUAGCAAUAUUACGCCCA | -1.95 ± 0.35 | 0.232 ± 0.38
71 | AAGUAGCAAUAUUACGCCCU | -0.145 ± 0.17 | -0.639 ± 0.19
72 | AAGUAGCAAUAUUACGCCUC | -1.63 ± 0.27 | –
73 | AAGUAGCAAUAUUACGCGAC | -3.11 ± 0.31 | -1.7 ± 0.36
74 | AAGUAGCAAUAUUACGCGAU | -3.2 ± 0.16 | -2.19 ± 0.15
75 | AAGUAGCAAUAUUACGCGGC | – | 0.207 ± 0.41

Row | Sequence | self-splicing fitness (ln) (30 °C) | self-splicing fitness (ln) (37 °C)
76 | AAGUAGCAAUAUUACGGAGC | -3.21 ± 0.32 | -1.35 ± 0.23
77 | AAGUAGCAAUAUUACGGCGC | -0.0482 ± 0.11 | 0.221 ± 0.14
78 | AAGUAGCAAUAUUACGGGGG | -2.88 ± 0.26 | -3.2 ± 0.35
79 | AAGUAGCAAUAUUACGGUGU | -2.2 ± 0.09 | -1.23 ± 0.099
80 | AAGUAGCAAUAUUACGUAUU | -1.97 ± 0.11 | -1.07 ± 0.14
81 | AAGUAGCAAUAUUACGUCGA | -1.34 ± 0.1 | -1.07 ± 0.11
82 | AAGUAGCAAUAUUACGUCUC | -1.59 ± 0.12 | -0.405 ± 0.14
83 | AAGUAGCAAUAUUACGUCUG | -0.515 ± 0.086 | 0.168 ± 0.11
84 | AAGUAGCAAUAUUACGUGGA | -3.83 ± 0.26 | -2.14 ± 0.16
85 | AAUAAGCAAUAUUACGAAGG | -3.39 ± 0.48 | -2.04 ± 0.39
86 | AAUAAGCAAUAUUACGACCU | 0.104 ± 0.12 | 0.726 ± 0.16
87 | AAUAAGCAAUAUUACGACUG | -0.872 ± 0.088 | -1.18 ± 0.11
88 | AAUAAGCAAUAUUACGAUCU | 0.041 ± 0.069 | 0.493 ± 0.087
89 | AAUAAGCAAUAUUACGCAAC | -2.79 ± 0.3 | -0.975 ± 0.2
90 | AAUAAGCAAUAUUACGCACA | -0.471 ± 0.099 | 0.253 ± 0.13
91 | AAUAAGCAAUAUUACGCAUC | -2.56 ± 0.12 | -1.66 ± 0.15
92 | AAUAAGCAAUAUUACGCGGG | -2.62 ± 0.13 | -1.35 ± 0.14
93 | AAUAAGCAAUAUUACGCUCG | -0.686 ± 0.14 | 0.0576 ± 0.19
94 | AAUAAGCAAUAUUACGGAAG | -3.52 ± 0.28 | -1.86 ± 0.39
95 | AAUAAGCAAUAUUACGGAAU | -2.69 ± 0.15 | -0.645 ± 0.11
96 | AAUAAGCAAUAUUACGGACG | -0.851 ± 0.15 | -0.397 ± 0.15
97 | AAUAAGCAAUAUUACGGCGC | 0.251 ± 0.12 | -0.478 ± 0.13
